What was measured:
[1] = substrate: CCCCCCCCCCCC(=O)N[C@@H](C)C(=O)O; assay: ninhydrin assay of released amino acid, initial rates; assay type: biochemical, Paraburkholderia monticola; settings: hydrolysis, 100 mM Na-borate pH 9.0, Zn2+ (50 µM), 30 °C in Results (Methods print 50 °C)
[2] = substrate: CCCCCCCCCCCC(=O)N[C@@H](Cc1ccccc1)C(=O)O; assay: as above; assay type: biochemical, Paraburkholderia monticola; settings: hydrolysis, 100 mM Na-borate pH 9.0, Zn2+ (50 µM), 30 °C in Results (Methods print 50 °C)

B1: PmAcy (N-terminally StrepII-tagged aminoacylase) (Paraburkholderia monticola) (protein)
chain: MLSLVLPGLSQAQSTLPPAPPAKPVLFTNFRLFDGKSMTLRDGLYMVVEGNSISQLGQGQPASVEGKTLVDCGGKVMMPGLIDMHWHALLAALPIQVILQSDIAFVHLAASAEAERTLLRGFTTIRDAGGPSFALKQAIDSGMISGPRIYPSGAMITTTGGHGDFRPLTDLPRTSSQVTQGERDGGFAIADTEDEMRVRVREQFIQGATQIKLVGSGGVSTPRSPLDMLTFTEKQLRAAVETAADWGTYVLSHAYTPEAVQRSVAAGAQCIEHGHLMDDKTAALMAKNGTWLSTQPFISEEDVGPLAPQSREKFLEVVAGTDNAFRLARKHGIKVAFGTDLLFSQAIATRQGTMLTHMKRWYSPAEALGMATGTNGQLLALTGKRNPYPRRLGVLEEGAYADLLLVDGNPLENLDLIANPEQNLRIVMKDGKFYKNTLKA
notes: full-length codon-optimised gene, N-terminal StrepII-tag with serine-glycine linker kept; E. coli BL21 (DE3) pGro7 (GroEL/S)
Km [1]: 1950 µM | Km [2]: 210 µM
